Values of other authors, collected in publication PMC9966187.

Columns and labels:
[1] = target: C-(IELFQAR) peptide
[2] = target: C-(IEELQAR) peptide

Kd [1]: 16 µM
Kd [2]: 35 µM
Substance: E-selectin (from UniProt P16581)
